Data from the supplement of paper PMC11316812.
± gives the standard deviation of the averaged measurements.

How the values were obtained:
MCF7 = assay: percentage of EdU-negative (G0-arrested) nuclei per well, 72 h; higher = more G0 arrest; conditions: reference: sequence is the full UniProt precursor, the tested protein was the secreted form or ectodomain
hTERT-HMEC = assay: as above; conditions: reference: sequence is the full UniProt precursor, the tested protein was the secreted form or ectodomain
[1] = protein concentration 0.01975 µM
[2] = protein concentration 0.1975 µM
[3] = protein concentration 0.0075 µM
[4] = protein concentration 0.0225 µM
[5] = protein concentration 0.0284475 µM
[6] = protein concentration 0.284475 µM
[7] = protein concentration 0.0257143 µM
[8] = protein concentration 0.257143 µM
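Further: secreted proteins added to cultured cells, EdU pulse at the end, nuclei found by Hoechst imaging, EdU status from nuclear versus surrounding ring intensity ratio, PBS as neutral control.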

Row | Sequence | percentage of EdU-negative (MCF7; [4]) [%] | percentage of EdU-negative (MCF7; protein concentration 0.225 µM) [%] | percentage of EdU-negative (hTERT-HMEC; [4]) [%] | percentage of EdU-negative (hTERT-HMEC; protein concentration 0.225 µM) [%] | other results
1 | MKPPFLLALVVCSVVSTNLKMVSKRNSVDGCIDWSVDLKTYMALAGEPVRVKCALFYSYIRTNYSTAQSTGLRLMWYKNKGDLEEPIIFSEVRMSKEEDSIWFHSAEAQDSGFYTCVLRNSTYCMKVSMSLTVAENESGLCYNSRIRYLEKSEVTKRKEISCPDMDDFKKSDQEPDVVWYKECKPKMWRSIIIQKGNALLIQEVQEEDGGNYTCELKYEGKLVRRTTELKVTALLTDKPPKPLFPMENQPSVIDVQLGKPLNIPCKAFFGFSGESGPMIYWMKGEKFIEELAGHIREGEIRLLKEHLGEKEVELALIFDSVVEADLANYTCHVENRNGRKHASVLLRKKDLIYKIELAGGLGAIFLLLVLLVVIYKCYNIELMLFYRQHFGADETNDDNKEYDAYLSYTKVDQDTLDCDNPEEEQFALEVLPDVLEKHYGYKLFIPERDLIPSGTYMEDLTRYVEQSRRLIIVLTPDYILRRGWSIFELESRLHNMLVSGEIKVILIECTELKGKVNCQEVESLKRSIKLLSLIKWKGSKSSKLNSKFWKHLVYEMPIKKKEMLPRCHVLDSAEQGLFGELQPIPSIAMTSTSATLVSSQADLPEFHPSDSMQIRHCCRGYKHEIPATTLPVPSLGNHHTYCNLPLTLLNGQLPLNNTLKDTQEFHRNSSLLPLSSKELSFTSDIW [Q9NP60] | – | – | – | – | percentage of EdU-negative (MCF7; [1]): 24.9 ± 2.6%; percentage of EdU-negative (MCF7; [2]): 26.8 ± 1.9%; percentage of EdU-negative (hTERT-HMEC; [1]): 4.91 ± 0.99%; percentage of EdU-negative (hTERT-HMEC; [2]): 8.95 ± 0.26%
2 | MKMRRYKLFLMFCMAGLCLISFLHFFKTLSYVTFPRELASLSPNLVSSFFWNNAPVTPQASPEPGGPDLLRTPLYSHSPLLQPLPPSKAAEELHRVDLVLPEDTTEYFVRTKAGGVCFKPGTKMLERPPPGRPEEKPEGANGSSARRPPRYLLSARERTGGRGARRKWVECVCLPGWHGPSCGVPTVVQYSNLPTKERLVPREVPRRVINAINVNHEFDLLDVRFHELGDVVDAFVVCESNFTAYGEPRPLKFREMLTNGTFEYIRHKVLYVFLDHFPPGGRQDGWIADDYLRTFLTQDGVSRLRNLRPDDVFIIDDADEIPARDGVLFLKLYDGWTEPFAFHMRKSLYGFFWKQPGTLEVVSGCTVDMLQAVYGLDGIRLRRRQYYTMPNFRQYENRTGHILVQWSLGSPLHFAGWHCSWCFTPEGIYFKLVSAQNGDFPRWGDYEDKRDLNYIRGLIRTGGWFDGTQQEYPPADPSEHMYAPKYLLKNYDRFHYLLDNPYQEPRSTAAGGWRHRGPEGRPPARGKLDEAEV | – | – | – | – | percentage of EdU-negative (MCF7; [3]): 24.8 ± 2.6%; percentage of EdU-negative (MCF7; protein concentration 0.075 µM): 29.1 ± 1.5%; percentage of EdU-negative (hTERT-HMEC; [3]): 5.484 ± 0.037%; percentage of EdU-negative (hTERT-HMEC; protein concentration 0.075 µM): 8.45 ± 1.1%
3 | MGTSPSSSTALASCSRIARRATATMIAGSLLLLGFLSTTTAQPEQKASNLIGTYRHVDRATGQVLTCDKCPAGTYVSEHCTNTSLRVCSSCPVGTFTRHENGIEKCHDCSQPCPWPMIEKLPCAALTDRECTCPPGMFQSNATCAPHTVCPVGWGVRKKGTETEDVRCKQCARGTFSDVPSSVMKCKAYTDCLSQNLVVIKPGTKETDNVCGTLPSFSSSTSPSPGTAIFPRPEHMETHEVPSSTYVPKGMNSTESNSSASVRPKVLSSIQEGTVPDNTSSARGKEDVNKTLPNLQVVNHQQGPHHRHILKLLPSMEATGGEKSSTPIKGPKRGHPRQNLHKHFDINEHLPWMIVLFLLLVLVVIVVCSIRKSSRTLKKGPRQDPSAIVEKAGLKKSMTPTQNREKWIYYCNGHGIDILKLVAAQVGSQWKDIYQFLCNASEREVAAFSNGYTADHERAYAALQHWTIRGPEASLAQLISALRQHRRNDVVEKIRGLMEDTTQLETDKLALPMSPSPLSPSPIPSPNAKLENSALLTVEPSPQDKNKGFFVDESEPLLRCDSTSSGSSALSRNGSFITKEKKDTVLRQVRLDPCDLQPIFDDMLHFLNPEELRVIEEIPQAEDKLDRLFEIIGVKSQEASQTLLDSVYSHLPDLL | 27.8 ± 0.67 | 25.7 ± 4.1 | 4.84 ± 0.51 | 5.355 ± 0.035 | –
4 | MWTLGRRAVAGLLASPSPAQAQTLTRVPRPAELAPLCGRRGLRTDIDATCTPRRASSNQRGLNQIWNVKKQSVYLMNLRKSGTLGHPGSLDETTYERLAEETLDSLAEFFEDLADKPYTFEDYDVSFGSGVLTVKLGGDLGTYVINKQTPNKQIWLSSPSSGPKRYDWTGKNWVYSHDGVSLHELLAAELTKALKTKLDLSSLAYSGKDA | 25.6 ± 0.72 | 26.7 ± 4 | 4.76 ± 0.24 | 9.96 ± 1 | –
5 | MPRQLSAAAALFASLAVILHDGSQMRAKAFPETRDYSQPTAAATVQDIKKPVQQPAKQAPHQTLAARFMDGHITFQTAATVKIPTTTPATTKNTATTSPITYTLVTTQATPNNSHTAPPVTEVTVGPSLAPYSLPPTITPPAHTTGTSSSTVSHTTGNTTQPSNQTTLPATLSIALHKSTTGQKPVQPTHAPGTTAAAHNTTRTAAPASTVPGPTLAPQPSSVKTGIYQVLNGSRLCIKAEMGIQLIVQDKESVFSPRRYFNIDPNATQASGNCGTRKSNLLLNFQGGFVNLTFTKDEESYYISEVGAYLTVSDPETIYQGIKHAVVMFQTAVGHSFKCVSEQSLQLSAHLQVKTTDVQLQAFDFEDDHFGNVDECSSDYTIVLPVIGAIVVGLCLMGMGVYKIRLRCQSSGYQRI [Q9UQV4] | – | – | – | – | percentage of EdU-negative (MCF7; [5]): 25.5 ± 0.37%; percentage of EdU-negative (MCF7; [6]): 26.2 ± 0.31%; percentage of EdU-negative (hTERT-HMEC; [5]): 5.03 ± 0.35%; percentage of EdU-negative (hTERT-HMEC; [6]): 5.04 ± 0.52%
6 | MMRCCRRRCCCRQPPHALRPLLLLPLVLLPPLAAAAAGPNRCDTIYQGFAECLIRLGDSMGRGGELETICRSWNDFHACASQVLSGCPEEAAAVWESLQQEARQAPRPNNLHTLCGAPVHVRERGTGSETNQETLRATAPALPMAPAPPLLAAALALAYLLRPLA [Q496H8] | 24.2 ± 1.7 | 23.3 ± 0.52 | 4.98 ± 0.36 | 5.04 ± 1.6 | –
7 | MIHTNLKKKFSCCVLVFLLFAVICVWKEKKKGSYYDSFKLQTKEFQVLKSLGKLAMGSDSQSVSSSSTQDPHRGRQTLGSLRGLAKAKPEASFQVWNKDSSSKNLIPRLQKIWKNYLSMNKYKVSYKGPGPGIKFSAEALRCHLRDHVNVSMVEVTDFPFNTSEWEGYLPKESIRTKAGPWGRCAVVSSAGSLKSSQLGREIDDHDAVLRFNGAPTANFQQDVGTKTTIRLMNSQLVTTEKRFLKDSLYNEGILIVWDPSVYHSDIPKWYQNPDYNFFNNYKTYRKLHPNQPFYILKPQMPWELWDILQEISPEEIQPNPPSSGMLGIIIMMTLCDQVDIYEFLPSKRKTDVCYYYQKFFDSACTMGAYHPLLYEKNLVKHLNQGTDEDIYLLGKATLPGFRTIHC | – | – | – | – | percentage of EdU-negative (MCF7; [7]): 23.7 ± 0.62%; percentage of EdU-negative (MCF7; [8]): 26.3 ± 1.7%; percentage of EdU-negative (hTERT-HMEC; [7]): 4.71 ± 0.62%; percentage of EdU-negative (hTERT-HMEC; [8]): 4.48 ± 0.15%
8 | MSSENCFVAENSSLHPESGQENDATSPHFSTRHEGSFQVPVLCAVMNVVFITILIIALIALSVGQYNCPGQYTFSMPSDSHVSSCSEDWVGYQRKCYFISTVKRSWTSAQNACSEHGATLAVIDSEKDMNFLKRYAGREEHWVGLKKEPGHPWKWSNGKEFNNWFNVTGSDKCVFLKNTEVSSMECEKNLYWICNKPYK | 23.5 ± 0.69 | 23.6 ± 0.57 | 5.44 ± 1.4 | 5.3 ± 0.56 | –
9 | MGLHLRPYRVGLLPDGLLFLLLLLMLLADPALPAGRHPPVVLVPGDLGNQLEAKLDKPTVVHYLCSKKTESYFTIWLNLELLLPVIIDCWIDNIRLVYNKTSRATQFPDGVDVRVPGFGKTFSLEFLDPSKSSVGSYFHTMVESLVGWGYTRGEDVRGAPYDWRRAPNENGPYFLALREMIEEMYQLYGGPVVLVAHSMGNMYTLYFLQRQPQAWKDKYIRAFVSLGAPWGGVAKTLRVLASGDNNRIPVIGPLKIREQQRSAVSTSWLLPYNYTWSPEKVFVQTPTINYTLRDYRKFFQDIGFEDGWLMRQDTEGLVEATMPPGVQLHCLYGTGVPTPDSFYYESFPDRDPKICFGDGDGTVNLKSALQCQAWQSRQEHQVLLQELPGSEHIEMLANATTLAYLKRVLLGP [Q8NCC3] | 25.3 ± 2.1 | 24.9 ± 0.58 | 4.6 ± 0.49 | 6.68 ± 0.68 | –
10 | MAWSLGSWLGGCLLVSALGMVPPPENVRMNSVNFKNILQWESPAFAKGNLTFTAQYLSYRIFQDKCMNTTLTECDFSSLSKYGDHTLRVRAEFADEHSDWVNITFCPVDDTIIGPPGMQVEVLADSLHMRFLAPKIENEYETWTMKNVYNSWTYNVQYWKNGTDEKFQITPQYDFEVLRNLEPWTTYCVQVRGFLPDRNKAGEWSEPVCEQTTHDETVPSWMVAVILMASVFMVCLALLGCFALLWCVYKKTKYAFSPRNSLPQHLKEFLGHPHHNTLLFFSFPLSDENDVFDKLSVIAEDSESGKQNPGDSCSLGTPPGQGPQS | – | – | – | – | percentage of EdU-negative (MCF7; protein concentration 0.034 µM): 24.3 ± 0.92%; percentage of EdU-negative (MCF7; protein concentration 0.34 µM): 26.5 ± 1.1%; percentage of EdU-negative (hTERT-HMEC; protein concentration 0.034 µM): 5.95 ± 2.1%; percentage of EdU-negative (hTERT-HMEC; protein concentration 0.34 µM): 7.32 ± 0.51%
11 | MDSSREPTLGRLDAAGFWQVWQRFDADEKGYIEEKELDAFFLHMLMKLGTDDTVMKANLHKVKQQFMTTQDASKDGRIRMKELAGMFLSEDENFLLLFRRENPLDSSVEFMQIWRKYDADSSGFISAAELRNFLRDLFLHHKKAISEAKLEEYTGTMMKIFDRNKDGRLDLNDLARILALQENFLLQFKMDACSTEERKRDFEKIFAYYDVSKTGALEGPEVDGFVKDMMELVQPSISGVDLDKFREILLRHCDVNKDGKIQKSELALCLGLKINP | 40.5 ± 16 | 25.7 ± 0.85 | 4.77 ± 0.84 | 5.6 ± 0.67 | –
